Legend:
[1] = biological target: rNav1.4 voltage-gated sodium channel α subunit (rat) (UniProt P15390)
[2] = biological target: rNav1.4 voltage-gated sodium channel α subunit (rat) (UniProt P15390); remark: listed apart in the source
[3] = biological target: rNav1.4 voltage-gated sodium channel α subunit (rat) (UniProt P15390); remark: listed apart in the source
[4] = biological target: rNav1.4 voltage-gated sodium channel α subunit (rat) (UniProt P15390); remark: listed apart in the source

Substance | Recovery from inactivation F (fast) [1] | Recovery from inactivation τ (fast) [1] [ms] | Recovery from inactivation τ (slow) [1] [ms] | Use-dependent current decline on repetitive depolarisations at 1 Hz (10% after the second pulse, cumulative rundown 20%) [2] [%] | Use-dependent current rundown on repetitive depolarisations at 5 Hz (data not shown) [2] [%] | Slowing of the current recovery after 1 ms, against WT β1 [3] [%] | Activation V1/2 of sodium currents, two electrode voltage clamp, co-expression in oocytes [4] [mV] | Inactivation V1/2 (steady-state inactivation) [4] [mV] | Inactivation rate τ (inac) of the peak current at −20 mV [1] [ms] | Current recovery from inactivation after a recovery interval of 1 ms [3] [%]
rNavβ1 point mutant C43A (from UniProt Q00954 19-218) (natural protein) | 0.89 | 2.7 | 636 | 20 | 20 | 95 | -29 | -59.1 |  | 
rNavβ1 point mutant G33M (from UniProt Q00954 19-218) (natural protein) |  |  | 760 |  |  |  | -32.5 | -56 | 0.46 | 
rNavβ1 point mutant R89A (from UniProt Q00954 19-218) (natural protein) | 0.92 | 2.3 | 376 |  |  | 90 | -33 | -62.6 | 2.6 | 
rNavβ1 point mutant Y32A (from UniProt Q00954 19-218) (natural protein) |  |  | 743 |  |  |  | -34 | -56 | 0.48 | 
rNavβ1 voltage-gated sodium channel accessory subunit, wild type (from UniProt Q00954 19-218) (natural protein) | 0.93 | 1.7 | 236 |  |  |  | -33.4 | -61.8 | 0.6 | 50
